In experiment [1] the target is T1, recombinant human PILRB (human, UniProt Q9UKJ0 20-191). The experiment in a line: SPR, Biacore T200, antibody captured by anti-Fab.
A further experiment addresses recombinant human PILRA (human, UniProt Q9UKJ1 20-197). The experiment in a line: SPR, Biacore T200, antibody captured by anti-Fab. (In general: SPR reads the build-up and loss of mass on a sensor chip optically.)
Experiment [2] has as its target T2, human PILRA G78 on HEK293F cells (human, UniProt Q9UKJ1 20-303).
T2 construct: also called hA; G78 OE
The experiment in a line: hA Kd of Table 9; method not stated (Example 8: HEK293F overexpressing cells, FACS).

Experiment [3] deals with T1, recombinant human PILRB. The experiment in a line: SPR, Carterra LSA, steady-state fit.
Experiment [4] addresses T3, cell surface PILRA on human monocytes (human, UniProt Q9UKJ1 20-303).
T3 construct: Native PILRA on CD14+ monocytes of healthy donors; also called human PILRA; hu mono
The experiment in a line: flow cytometry; Alexa Fluor 647-conjugated antibody on human CD14+ monocytes (second donor sample), Fc receptors blocked, 30 min on ice. On the procedure:
Anti-human PILRA antibodies X0 (PA-29) and its affinity matured variants were tested for their abilities to bind cell surface PILRA on human and cynomolgus monocytes. CD14+ monocytes were isolated from healthy human donors using a RosetteSep Human Monocyte Enrichment Cocktail kit (StemCell). Cynomolgus white blood cells were collected from cynomolgus whole blood. In both human and cynomolgus samples, the Fc receptor on the tested monocytes was blocked and the monocytes were treated with Alexa Fluor 647-conjugated PILRA antibodies for 30 minutes on ice. A dose response curve of antibodies X0 (PA-29), X1, X2, X7, X11, X12, X13, X14, X16, X18, and X20 was tested for binding to cell surface PILRA in human and cynomolgus monocytes, and antibodies bound to PILRA in a dose response manner. In another sample of human donor monocytes, a dose response curve of antibodies X0 (PA-29), X1, X2, X11, X13, X18, X29 (PA-43), and X34 (A6) was tested for binding to cell surface PILRA in human and cynomolgus monocytes, and antibodies bound to PILRA in a dose response manner.
In general terms: A flow cytometer gives signals particle by particle.

For experiment [5], the target named is T4, cynomolgus PILRA on HEK293F cells (cynomolgus monkey, UniProt A0A7N9CRU1 20-292). Nature of the experiment: cA Kd of Table 9; method not stated (Example 8: HEK293F overexpressing cells, FACS).
T4 sequence (A0A7N9CRU1 entry or part of it): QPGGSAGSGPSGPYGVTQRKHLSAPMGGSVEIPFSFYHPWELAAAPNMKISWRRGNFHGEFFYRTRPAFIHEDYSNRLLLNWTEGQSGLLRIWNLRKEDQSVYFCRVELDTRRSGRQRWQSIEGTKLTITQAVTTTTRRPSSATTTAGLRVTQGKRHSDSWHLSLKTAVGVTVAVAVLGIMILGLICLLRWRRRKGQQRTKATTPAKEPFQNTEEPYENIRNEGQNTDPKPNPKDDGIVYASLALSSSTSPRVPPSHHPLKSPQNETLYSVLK
Experiment [6] concerns the target T4, cynomolgus PILRA on HEK293F cells. The experiment in a line: flow cytometry; HEK293F cells overexpressing cynomolgus PILRA, goat anti-human IgG Alexa Fluor 647.

T1 sequence (Q9UKJ0 20-191 limits assumed): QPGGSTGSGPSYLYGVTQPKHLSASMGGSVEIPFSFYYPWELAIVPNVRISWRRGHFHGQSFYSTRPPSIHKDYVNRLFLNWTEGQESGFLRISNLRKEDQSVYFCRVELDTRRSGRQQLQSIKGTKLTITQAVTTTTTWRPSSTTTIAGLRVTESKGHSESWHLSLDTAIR
T2 sequence (Q9UKJ1 20-303 R78G): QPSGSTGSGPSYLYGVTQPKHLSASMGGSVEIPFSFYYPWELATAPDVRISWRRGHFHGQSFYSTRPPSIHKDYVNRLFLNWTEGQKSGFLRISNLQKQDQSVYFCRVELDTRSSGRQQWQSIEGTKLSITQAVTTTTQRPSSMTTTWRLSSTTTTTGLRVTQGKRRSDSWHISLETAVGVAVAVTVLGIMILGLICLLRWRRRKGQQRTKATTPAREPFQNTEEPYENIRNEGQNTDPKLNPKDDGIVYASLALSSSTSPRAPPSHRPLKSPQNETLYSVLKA
Sequence of recombinant human PILRA (Q9UKJ1 20-197 limits assumed): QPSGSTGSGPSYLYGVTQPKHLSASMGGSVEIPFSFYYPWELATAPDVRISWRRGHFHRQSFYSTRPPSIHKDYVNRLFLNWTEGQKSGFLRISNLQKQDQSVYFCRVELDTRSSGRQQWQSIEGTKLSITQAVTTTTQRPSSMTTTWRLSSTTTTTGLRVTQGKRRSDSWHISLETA
T3 sequence (Q9UKJ1 20-303): as the sequence (Q9UKJ1 20-303 R78G) above, with G59R counted along it

B1: X13 (antibody, human IgG4, V domains shown)
VH: QVQLVQSGAEVKKPGSSVKVSCKASGYNFLHYDVNWVRQAPGQGLEWMGGIIPIFGTANYAQKFQGRVTITADESTSTAYMELSSLRSEDTAVYYCATAVGAGWFDPWGQGTLVTVSS
VL: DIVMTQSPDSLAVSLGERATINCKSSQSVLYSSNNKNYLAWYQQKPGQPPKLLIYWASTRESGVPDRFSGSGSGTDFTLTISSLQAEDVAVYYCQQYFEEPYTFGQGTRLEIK
notes: conditioned media in the HEK293F assays
By Kd is commonly meant the concentration at which binding is half-saturated. A word on the EC50 (read off the curve): it is the concentration giving half of the maximal effect. As to B1, the equilibrium dissociation constant (Kd) amounted to 9.1 nM with recombinant human PILRB [1]; 0.2 nM with recombinant human PILRA; 0.2 nM in experiment [2]; 18 nM in the experiment with recombinant human PILRB [3]; 0.4 nM in experiment [5]. Besides, the “EC50 (read off the curve)” value in experiment [4] is around 0.1 µg/mL; in experiment [6] it was around 0.5 µg/mL.

Source of the values: patent US20260070976A1 (Alector, published 2026).
